{"source": "patent US20100166746A1", "about": "(published 2010)", "binders": {"B1": {"name": "3F2 anti-EphA2 antibody (antibody, V domains shown)", "VH": "EVQLVESGGGVVRPGGSLRLSCAASGFTVSDYSMNWVRQAPGKGLEWIGFIRNKANAYTTEYSASVKGRFTISRDDSKNTLYLQMNSLKTEDTAVYYCTTYPRYHAMDSWGQGTMVTVSS", "VL": "AIQLTQSPSSLSASVGDRVTITCRASQSISNNLHWYLQKPGQSPQLLIYYGFQSISGVPSRFSGSGSGTDFTLTISSLQPEDFATYYCQQANSWPLTFGGGTKLEIK"}}, "target": "T1, human EphA2 antigen (human, UniProt P29317 24-534, limits assumed)", "T1 construct": "also called human EphA2 tumor antigen", "T1 sequence (P29317 24-534 limits assumed)": "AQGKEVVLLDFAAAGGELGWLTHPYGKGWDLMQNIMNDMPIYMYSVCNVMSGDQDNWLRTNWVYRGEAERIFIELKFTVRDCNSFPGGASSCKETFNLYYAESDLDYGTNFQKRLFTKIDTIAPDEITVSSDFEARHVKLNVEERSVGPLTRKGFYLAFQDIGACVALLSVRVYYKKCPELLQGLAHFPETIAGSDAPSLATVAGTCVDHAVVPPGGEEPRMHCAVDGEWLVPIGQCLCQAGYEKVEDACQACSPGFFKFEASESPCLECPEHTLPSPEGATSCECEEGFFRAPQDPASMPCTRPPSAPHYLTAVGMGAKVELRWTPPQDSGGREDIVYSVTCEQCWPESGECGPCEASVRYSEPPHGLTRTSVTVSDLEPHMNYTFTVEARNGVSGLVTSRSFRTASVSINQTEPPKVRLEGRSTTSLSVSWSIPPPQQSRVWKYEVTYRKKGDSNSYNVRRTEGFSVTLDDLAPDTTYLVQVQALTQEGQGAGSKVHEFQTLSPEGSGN", "assay": "kinetic parameters, ratio to G5 reference", "data": [{"binder": "B1", "values": [{"measurement": "fold faster Koff as compared to G5", "result": "~3", "unit": "fold"}, {"measurement": "fold faster Kon as compared to G5", "result": "~3.5", "unit": "fold"}]}]}
